Measured values published in patent US20250295792A1 (ZONHON BIOPHARMA INSTITUTE, published 2025).
Where no end group is shown, it is not given here. [ ]: non-standard residue; d: D form. 2Thi = N[C@@H](Cc1cccs1)C(=O)O

B1: Lys-BKm01-SPA10K (peptide)
peptide: KRPPGXSPFR
modifications: {THI} (β-2-thiophenylalanine) at position 6; N-terminal single modification with M-SPA-10K (straight-chain mPEG succinimidyl propionate, about 10 kDa)
B2: Lys-BKm01-YNHS10K (peptide)
peptide: KRPPGXSPFR
modifications: {THI} (β-2-thiophenylalanine) at position 6; N-terminal single modification with M-YNHS-10K (branched-chain mPEG succinimidyl acetate, about 10 kDa)

target: B2 receptor; experiment: cell-based or functional assay
Sequence (P30411 whole entry): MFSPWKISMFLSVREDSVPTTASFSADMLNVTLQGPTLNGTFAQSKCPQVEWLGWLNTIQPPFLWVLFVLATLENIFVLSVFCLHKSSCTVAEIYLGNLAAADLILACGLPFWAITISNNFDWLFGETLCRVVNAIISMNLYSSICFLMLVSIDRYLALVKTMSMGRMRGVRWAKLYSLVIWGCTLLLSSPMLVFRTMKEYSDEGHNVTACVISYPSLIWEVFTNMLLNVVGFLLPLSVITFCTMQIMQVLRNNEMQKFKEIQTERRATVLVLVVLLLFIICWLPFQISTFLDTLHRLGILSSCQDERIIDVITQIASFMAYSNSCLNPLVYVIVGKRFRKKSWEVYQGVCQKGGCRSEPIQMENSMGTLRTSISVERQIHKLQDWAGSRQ

In order of rising “EC50 value (B2 receptor reporter gene assay, FIG. 4a)” value:
1. B1  90.8 µg/mL
2. B2  347 µg/mL

In the case of B1, the “fold activity against Lys-BKm01-YNHS10K (B2 receptor reporter gene assay)” value is reported as about 4 fold.

target: B2 receptor; experiment: cell-based or functional assay; remark: another data set of the same source

KRPPGXSPFR ({THI} (β-2-thiophenylalanine) at position 6: KRPPG{THI}SPFR) [Lys-BKm01] and KRPPG[2Thi]SPFRKRPPG[2Thi]SPFR [Lys-BKm14] are the same in “Relative affinity activity (B2-NFAT-CHO-K1 luciferase reporter gene assay, from EC50)” value (“Relative affinity activity” for short): 100% for the first, 100% for the second.

KRPPG[2Thi]SPFRRPPG[2Thi]SPFR [Lys-BKm12] and KRPPGFSPFR [Lys-BK (wild-type lysyl bradykinin)] are the same in “Relative affinity activity” value: 100% for the first, 100% for the second.

First: KRPPGXSPFRR ({THI} (β-2-thiophenylalanine) at position 6: KRPPG{THI}SPFRR) [Lys-BKm06]
Second: KRPPGFSPHR [Lys-BKm04]
The “Relative affinity activity” value of the first is higher: 90% for the first, under 10% for the second.

KRPPGHSPFR [Lys-BKm03] and KRPPGXSPXR ({THI} (β-2-thiophenylalanine) at positions 6 and 9: KRPPG{THI}SP{THI}R) [Lys-BKm07] cannot be ordered by “Relative affinity activity” value: under 10% for the first, under 10% for the second.
